Test [1] addresses 5-enolpyruvylshikimate-3-phosphate synthase (EPSPS) from Agrobacterium sp. strain CP4 (CP4-EPSPS) (Agrobacterium sp. strain CP4) (UniProt Q9R4E4). Briefly: native gel or EMSA; native-PAGE of the purified CP4-EPSPS protein (10 μg). (In general: In EMSA bound probe runs differently from free probe, usually more slowly.)
The target is the same in test [2]. As to the kind of experiment: SEC; Enrich SEC 650 column on FPLC, PBS pH 7.2, 25 °C, 0.5 mL/min, calibrated with Gel Filtration Standard; after Ni-NTA affinity chromatography. For orientation: In gel filtration, larger molecules generally elute earlier.

These results are taken from publication PMC10254243.

Usually stoichiometry N stands for a count of units in the complex or per binding partner.

“5-enolpyruvylshikimate-3-phosphate synthase (EPSPS) from Agrobacterium sp. strain CP4 (CP4-EPSPS) (from UniProt Q9R4E4 1-455) (enzyme)”: the stoichiometry N in test [1] and in test [2] was 2 each time.
